The assay addresses T1, Side-VI (CG34114) complete ectodomain, biotinylated (SPR) (Drosophila melanogaster, UniProt Q0KI85 1-1087, biotin on the biotin acceptor peptide (E. coli BirA)).
T1 construct: Side-VI (CG34114), Drosophila, complete ectodomain; source: Trichoplusia ni High Five cells, baculovirus, secreted, purified (Ni-NTA, SEC)
T1 sequence (looked up): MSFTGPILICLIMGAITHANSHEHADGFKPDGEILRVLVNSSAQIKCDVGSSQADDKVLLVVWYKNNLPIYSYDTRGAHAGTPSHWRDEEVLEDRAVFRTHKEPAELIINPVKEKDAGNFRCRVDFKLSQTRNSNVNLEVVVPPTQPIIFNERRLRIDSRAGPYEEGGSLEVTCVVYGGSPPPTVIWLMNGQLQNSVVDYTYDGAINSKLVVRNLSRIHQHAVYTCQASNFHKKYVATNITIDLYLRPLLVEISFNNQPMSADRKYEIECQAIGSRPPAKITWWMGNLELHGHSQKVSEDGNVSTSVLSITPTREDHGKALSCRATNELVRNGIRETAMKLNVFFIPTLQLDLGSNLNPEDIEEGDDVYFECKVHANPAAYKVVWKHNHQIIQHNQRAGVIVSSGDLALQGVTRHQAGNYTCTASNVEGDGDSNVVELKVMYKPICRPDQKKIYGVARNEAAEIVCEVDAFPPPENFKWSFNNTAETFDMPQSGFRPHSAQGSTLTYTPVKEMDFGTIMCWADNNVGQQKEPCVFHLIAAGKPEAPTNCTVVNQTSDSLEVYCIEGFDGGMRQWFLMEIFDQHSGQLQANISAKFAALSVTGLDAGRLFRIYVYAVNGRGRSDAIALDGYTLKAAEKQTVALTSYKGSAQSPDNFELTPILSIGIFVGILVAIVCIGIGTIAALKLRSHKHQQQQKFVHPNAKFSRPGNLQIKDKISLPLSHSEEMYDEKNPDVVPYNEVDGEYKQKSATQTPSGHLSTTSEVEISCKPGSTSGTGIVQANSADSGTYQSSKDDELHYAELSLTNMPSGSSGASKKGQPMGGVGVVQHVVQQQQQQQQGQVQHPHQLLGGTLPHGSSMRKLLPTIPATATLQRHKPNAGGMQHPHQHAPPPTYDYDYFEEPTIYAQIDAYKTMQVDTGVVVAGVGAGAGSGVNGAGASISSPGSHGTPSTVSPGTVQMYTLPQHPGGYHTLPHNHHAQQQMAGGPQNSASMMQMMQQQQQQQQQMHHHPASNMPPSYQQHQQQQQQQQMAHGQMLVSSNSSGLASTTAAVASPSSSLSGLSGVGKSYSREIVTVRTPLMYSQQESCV
The assay can be described thus: SPR; Biacore T100; biotinylated Side-VI captured on an SA chip, Beat-Va or Beat-Vb flowed over; HBSp+ with 500 mM NaCl and 15% glycerol; equilibrium responses fitted to a Langmuir isotherm. The following applies: both partners purified.

B1: Beat-Va complete ectodomain (SPR) (domain or fragment)
chain: LFVTDISVPEIVDFRDNVTLSCSYDMRGHTLNSVKWYKDHEEFFRYSPLTSPIYMTFDVAGLQVLEGKYVCNESSCRLDLSLQGAKSTGLYKCEVSGDAPHFKLADKADNMTVAALPQNDPLIESFNSMYRMEEYLKATCISDFSSLPTRLTWYINGEQPLLGELYPTTDTSLAAHDYVLRRQRLQVQFFLQGQRFFQAGKILELKCVAEIENYPELRREKTLSASLSQYDNFNNQMPLRHANANSGSAQRSILCGRTSLISAFLAAILLIHCLRRPS
B1 showed a Kd of 760 nM and a koff of at least 0.5 s⁻¹.

These data come from PMC5578738 (eLife, 2017).
